Reference: US20240116985A1 (published 2024)
Values belong to the binder of their own block, whether it stands above or below them. Starred links: 1 amine or outer side, 2 acyl side, 3 side chain; linkers in the order of their positions; H or OH if unused. Positions of bridges follow the written chain, without caps; N, C: chain ends. Non-standard residues stand in square brackets, D forms with d. Primed or numbered codes have the meaning given here. *: point of attachment. PyrS2″ = (S)-3-amino-1-((pent-4-en-1-yloxy)carbonyl)pyrrolidine-3-carboxylic acid (stapling residue), C=CCCCOC(=O)N1CC[C@@](N[*:1])(C(=O)[*:2])C1; B5(18) = 2,2-bis(4-pentenyl)glycine (2-amino-2-(pent-4-en-1-yl)hept-6-enoic acid), stitching residue, C=CCCCC(CCCC=C)(N[*:1])C(=O)[*:2]; B5(4) = 2,2-bis(4-pentenyl)glycine = 2-amino-2-(pent-4-en-1-yl)hept-6-enoic acid (stitching residue), C=CCCCC(CCCC=C)(N[*:1])C(=O)[*:2]; TfeGA = (S)-2-amino-3-((carboxymethyl)(2,2,2-trifluoroethyl)amino)propanoic acid, O=C([C@H](CN(CC(=O)[*:3])CC(F)(F)F)N[*:1])[*:2]; TriAzDap = Dap whose side chain is a 1H-1,2,3-triazol-1-yl bearing the bracketed 4-substituent; B5(3) = 2,2-bis(4-pentenyl)glycine (stitching residue), C=CCCCC(CCCC=C)(N[*:1])C(=O)[*:2]; Phe(2-CF3) = N[C@@H](Cc1ccccc1C(F)(F)F)C(=O)O; Phe(2-Cl) = N[C@@H](Cc1ccccc1Cl)C(=O)O; Bta = N[C@@H](Cc1csc2ccccc12)C(=O)O; αAllylPro = C=CC[C@@]1(C(=O)O)CCCN1; tBuAla = CC(C)(C)C[C@H](N)C(=O)O; CMe2CO2H = CC(C)(C(=O)O)*

How the values were obtained:
[1] = biological target: T1, beta-catenin in DLD1 TCF/LEF luciferase reporter cells (UniProt P35222 1-781); test: cell-based or functional assay
T1 sequence (looked up): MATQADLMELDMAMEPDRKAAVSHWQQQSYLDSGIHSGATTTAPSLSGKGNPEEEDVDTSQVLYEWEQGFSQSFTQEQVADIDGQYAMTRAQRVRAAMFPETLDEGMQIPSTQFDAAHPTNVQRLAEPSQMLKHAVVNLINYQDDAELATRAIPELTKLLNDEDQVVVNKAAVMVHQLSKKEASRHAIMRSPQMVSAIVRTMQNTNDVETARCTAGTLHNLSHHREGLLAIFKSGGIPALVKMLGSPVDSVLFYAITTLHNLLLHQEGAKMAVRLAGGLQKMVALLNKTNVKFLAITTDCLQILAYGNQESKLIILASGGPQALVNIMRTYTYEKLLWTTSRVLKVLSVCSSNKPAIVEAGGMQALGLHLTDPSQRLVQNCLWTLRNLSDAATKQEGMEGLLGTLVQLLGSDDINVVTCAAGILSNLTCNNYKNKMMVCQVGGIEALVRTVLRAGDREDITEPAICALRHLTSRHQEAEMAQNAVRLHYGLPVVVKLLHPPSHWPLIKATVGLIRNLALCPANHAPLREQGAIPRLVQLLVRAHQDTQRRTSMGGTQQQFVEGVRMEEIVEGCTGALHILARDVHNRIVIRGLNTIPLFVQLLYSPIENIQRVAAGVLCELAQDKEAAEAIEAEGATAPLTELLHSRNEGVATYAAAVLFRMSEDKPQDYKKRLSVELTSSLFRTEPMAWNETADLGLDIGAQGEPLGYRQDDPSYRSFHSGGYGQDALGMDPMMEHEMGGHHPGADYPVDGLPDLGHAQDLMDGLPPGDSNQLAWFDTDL

[2] = biological target: T2, B-cat-Halo (beta-catenin HaloTag NanoBRET construct expressed in HEK293 cells) (UniProt P35222 1-781); test: cell-based or functional assay
T2 sequence (looked up): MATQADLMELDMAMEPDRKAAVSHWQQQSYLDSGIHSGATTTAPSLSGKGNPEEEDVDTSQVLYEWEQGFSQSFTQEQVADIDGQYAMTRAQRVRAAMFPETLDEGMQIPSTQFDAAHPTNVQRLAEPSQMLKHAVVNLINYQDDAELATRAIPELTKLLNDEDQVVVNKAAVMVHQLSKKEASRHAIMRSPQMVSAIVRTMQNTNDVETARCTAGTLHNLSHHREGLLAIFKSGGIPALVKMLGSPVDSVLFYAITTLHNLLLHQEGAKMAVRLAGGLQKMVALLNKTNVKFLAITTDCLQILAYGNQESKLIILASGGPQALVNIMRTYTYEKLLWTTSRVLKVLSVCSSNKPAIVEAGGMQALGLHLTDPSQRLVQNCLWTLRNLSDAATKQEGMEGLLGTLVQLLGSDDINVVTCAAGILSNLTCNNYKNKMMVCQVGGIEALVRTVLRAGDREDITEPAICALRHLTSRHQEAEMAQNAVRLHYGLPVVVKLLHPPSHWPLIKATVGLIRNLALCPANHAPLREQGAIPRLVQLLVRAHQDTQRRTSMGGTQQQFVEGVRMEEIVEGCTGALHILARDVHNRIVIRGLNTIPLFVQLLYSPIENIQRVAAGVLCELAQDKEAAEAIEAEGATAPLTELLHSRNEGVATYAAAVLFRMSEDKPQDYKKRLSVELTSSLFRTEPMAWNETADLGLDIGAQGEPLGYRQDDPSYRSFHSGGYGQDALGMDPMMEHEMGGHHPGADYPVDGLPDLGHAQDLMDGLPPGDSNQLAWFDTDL

[3] = biological target: T3, beta-catenin in DLD1 TCF/LEF luciferase reporter cells (UniProt P35222 1-781); test: cell-based or functional assay; remark: listed apart in the source
T3 sequence (looked up): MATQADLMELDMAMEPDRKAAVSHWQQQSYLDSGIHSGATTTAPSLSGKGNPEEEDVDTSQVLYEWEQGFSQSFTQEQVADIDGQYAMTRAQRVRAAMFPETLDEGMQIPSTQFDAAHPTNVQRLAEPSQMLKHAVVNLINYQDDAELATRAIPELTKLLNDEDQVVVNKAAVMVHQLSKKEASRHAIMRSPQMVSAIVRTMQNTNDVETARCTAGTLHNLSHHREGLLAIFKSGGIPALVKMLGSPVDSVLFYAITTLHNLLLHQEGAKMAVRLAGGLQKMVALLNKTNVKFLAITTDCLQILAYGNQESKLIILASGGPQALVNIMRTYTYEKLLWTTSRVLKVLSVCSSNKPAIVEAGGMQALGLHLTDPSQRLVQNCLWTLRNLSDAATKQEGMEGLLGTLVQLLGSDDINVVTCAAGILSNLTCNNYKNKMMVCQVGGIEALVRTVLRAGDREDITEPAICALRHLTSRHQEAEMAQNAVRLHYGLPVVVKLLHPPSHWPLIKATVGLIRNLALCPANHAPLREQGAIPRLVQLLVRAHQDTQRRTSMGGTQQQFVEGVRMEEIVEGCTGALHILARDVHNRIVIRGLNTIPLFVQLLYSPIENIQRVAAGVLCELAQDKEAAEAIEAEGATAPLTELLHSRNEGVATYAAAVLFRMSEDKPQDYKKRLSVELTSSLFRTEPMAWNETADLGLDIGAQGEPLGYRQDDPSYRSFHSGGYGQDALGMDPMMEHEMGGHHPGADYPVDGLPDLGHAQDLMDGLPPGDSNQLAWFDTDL

B-cat-Halo = biological target: T4, B-cat-Halo (UniProt P35222 1-781); test: cell-based or functional assay
T4 sequence (looked up): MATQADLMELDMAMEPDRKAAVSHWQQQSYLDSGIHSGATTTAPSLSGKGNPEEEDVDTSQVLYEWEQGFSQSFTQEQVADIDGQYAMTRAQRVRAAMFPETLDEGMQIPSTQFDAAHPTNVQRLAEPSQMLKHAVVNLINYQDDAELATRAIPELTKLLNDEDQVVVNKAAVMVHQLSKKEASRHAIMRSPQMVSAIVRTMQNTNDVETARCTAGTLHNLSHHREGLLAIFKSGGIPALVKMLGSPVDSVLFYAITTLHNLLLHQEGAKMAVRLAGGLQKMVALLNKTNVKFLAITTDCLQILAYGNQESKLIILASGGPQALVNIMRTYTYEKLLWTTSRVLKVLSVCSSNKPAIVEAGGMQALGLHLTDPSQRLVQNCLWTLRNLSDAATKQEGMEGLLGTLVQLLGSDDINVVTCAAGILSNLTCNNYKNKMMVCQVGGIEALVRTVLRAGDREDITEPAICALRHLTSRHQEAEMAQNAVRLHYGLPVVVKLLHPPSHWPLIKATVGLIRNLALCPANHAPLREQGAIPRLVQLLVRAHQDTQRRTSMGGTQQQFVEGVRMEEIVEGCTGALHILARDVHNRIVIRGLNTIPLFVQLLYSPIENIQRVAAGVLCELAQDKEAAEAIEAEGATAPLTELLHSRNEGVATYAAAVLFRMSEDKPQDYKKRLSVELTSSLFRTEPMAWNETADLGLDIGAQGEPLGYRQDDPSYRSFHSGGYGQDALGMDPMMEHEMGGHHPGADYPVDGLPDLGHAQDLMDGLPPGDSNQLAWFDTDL

[4] = biological target: T5, beta-catenin in DLD1 TCF/LEF luciferase reporter cells (UniProt P35222 1-781); test: cell-based or functional assay; remark: listed apart in the source
T5 sequence (looked up): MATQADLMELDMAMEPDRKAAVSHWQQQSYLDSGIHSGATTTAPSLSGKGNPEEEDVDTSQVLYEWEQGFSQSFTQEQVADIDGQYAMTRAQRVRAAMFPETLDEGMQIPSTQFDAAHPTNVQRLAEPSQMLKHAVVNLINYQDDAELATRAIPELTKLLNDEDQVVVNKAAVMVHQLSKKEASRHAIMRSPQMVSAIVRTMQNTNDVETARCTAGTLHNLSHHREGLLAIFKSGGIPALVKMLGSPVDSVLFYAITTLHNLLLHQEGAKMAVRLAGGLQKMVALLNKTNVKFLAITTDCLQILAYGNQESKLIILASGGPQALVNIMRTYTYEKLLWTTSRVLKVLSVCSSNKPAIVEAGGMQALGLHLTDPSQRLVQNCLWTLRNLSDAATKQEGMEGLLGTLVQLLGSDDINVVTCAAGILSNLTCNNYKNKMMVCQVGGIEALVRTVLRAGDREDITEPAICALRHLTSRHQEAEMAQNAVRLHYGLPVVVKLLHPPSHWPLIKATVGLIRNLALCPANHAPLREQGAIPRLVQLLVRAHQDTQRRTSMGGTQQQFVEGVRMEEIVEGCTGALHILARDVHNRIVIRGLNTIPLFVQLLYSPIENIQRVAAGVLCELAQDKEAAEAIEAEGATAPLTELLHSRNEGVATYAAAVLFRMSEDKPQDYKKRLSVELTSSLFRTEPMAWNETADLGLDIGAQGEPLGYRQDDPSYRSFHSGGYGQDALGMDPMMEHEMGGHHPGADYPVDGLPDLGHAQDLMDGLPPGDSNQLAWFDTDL

[5] = biological target: T6, full-length beta-Catenin (Uniprot ID P35222) (Homo sapiens (Human), UniProt P35222 1-781); test: fluorescence polarization competition; full-length beta-catenin, 5FAM-TCF4(10-53) probe as competitor
T6 construct: The assay protocol says 'full-length'; also called bCat; B-Catenin
T6 sequence: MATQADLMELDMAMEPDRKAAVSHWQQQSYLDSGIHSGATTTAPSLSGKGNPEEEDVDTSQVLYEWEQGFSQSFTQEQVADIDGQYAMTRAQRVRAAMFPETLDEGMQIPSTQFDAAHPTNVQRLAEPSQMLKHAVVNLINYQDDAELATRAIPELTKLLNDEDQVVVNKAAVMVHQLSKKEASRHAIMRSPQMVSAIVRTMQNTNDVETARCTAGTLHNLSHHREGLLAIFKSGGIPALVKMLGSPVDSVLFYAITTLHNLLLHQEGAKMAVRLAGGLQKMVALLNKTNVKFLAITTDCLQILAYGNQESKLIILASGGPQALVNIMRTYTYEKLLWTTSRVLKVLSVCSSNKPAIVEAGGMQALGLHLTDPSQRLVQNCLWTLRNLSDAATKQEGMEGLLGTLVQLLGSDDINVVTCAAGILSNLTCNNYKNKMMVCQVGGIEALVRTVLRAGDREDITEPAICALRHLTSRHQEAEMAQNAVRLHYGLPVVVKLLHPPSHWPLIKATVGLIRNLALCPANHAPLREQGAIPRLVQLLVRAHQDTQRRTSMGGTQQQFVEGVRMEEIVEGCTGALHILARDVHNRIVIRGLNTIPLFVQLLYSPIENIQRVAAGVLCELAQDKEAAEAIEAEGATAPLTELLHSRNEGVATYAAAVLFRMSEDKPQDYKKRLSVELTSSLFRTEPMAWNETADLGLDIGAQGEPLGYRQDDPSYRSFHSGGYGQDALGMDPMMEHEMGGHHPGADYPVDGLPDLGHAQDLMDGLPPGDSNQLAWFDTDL
Procedure: The plate was incubated protected from light for 60 minutes at 20° C. prior to read. Reads were performed on a CLARIOstar plate reader (BMG Labtech) in duplicate, and data were fitted to a 1:1 binding model with hill slope using an in-house script. All provided concentrations are final concentrations.

- DLD1 4% Abs IC50 [1]: 2.6 µM
Binder: Ac-[αAllylPro]D[tBuAla][B5(3)]D[TriAzDap](CMe2CO2H)AAFL[PyrS2″][Phe(2-CF3)][Bta]S-NH2 (staple 1-4, 4-11) [I-2374]

- NanoBRET Abs IC50 [2]: 19.7 µM
- DLD1 reporter assay Abs IC50 [3]: 14.5 µM
Binder: Ac-[αAllylPro]D[tBuAla][B5(4)]DDAAFN[PyrS2″][Phe(2-Cl)][Bta]Q-NHEt (staple 1-4, 4-11) [I-1079]

The next lines start with the binder.

Binder: Ac-[αAllylPro]D[tBuAla][B5(18)]D[TfeGA]FAFN[PyrS2″][Phe(2-Cl)][Bta]Q-NH2 (staple 1-4, 4-11) [I-1008]
- NanoBRET Abs IC50 (B-cat-Halo): 14 µM
- DLD1 4% Abs IC50 [4]: 4.7 µM

B1: I-64: Ac-Ala-Asp-Ile-RdN-Asp-Asp-Ala-Ala-Phe-Gln-S7-Phe-Trp-His-NH2 (stapled peptide) (peptide)
peptide: ADIXDDAAFQXFWH
modifications: not fully specified; N-terminal acetyl (Ac); C-terminal amide (NH2); RdN at position 4 and S7 at position 11 (non-natural olefin amino acids); stapled by olefin metathesis RdN-S7
notes: Same description as I-65
- IC50 [5]: 4.25 µM
